Publication PMC9118981

Legend:
purified protein [1] = substrate: O=c1[nH]c(=O)[nH]c(=O)[nH]1; assay: purified protein; format: biochemical, Pseudolabrys sp. Root1462; conditions: 50.0 °C
purified protein [2] = substrate: O=c1[nH]c(=O)[nH]c(=O)[nH]1; assay: purified protein; format: biochemical, Bradyrhizobium diazoefficiens; conditions: 50.0 °C

Protein | Km (purified protein [1]) [µM] | kcat (purified protein [1]) [s⁻¹] | Km (purified protein [2]) [µM] | kcat (purified protein [2]) [s⁻¹]
CAH-PR (Pseudolabrys sp. Root1462) (protein, codon-optimised gene expressed in Bacillus subtilis, purified; no tag mentioned) MPIAKVHRISASSPNDVSGLEAAIASGRIDPKGVIAVLGKTEGNGLVNDFSRGLATTALTLLFERHLPQAEAAQICLVMSGGTEGGMAPHWIVFERGKGEGGRSPALAIGRAHTLQLPYEQLGRLGEVDQVAAGVRAAMEDAGIADPADVHFVQIKCPLLTAQRIAEAEARGAAVATRDTLKSMSLSRAASALGAAVALGEIDRAAITEAQIGSDWSLWSGRASTSAGIELVNHEIVVLGMSKDWSGPLAIDHAVMRDGIDIEPVRAALQRLGLGAAGQLDPAQRNKMVALLAKAEASHDGRLRGHRHTMLDDSDIASTRHARGFVCGALAGLVGHAEIYVSGGAEHQGPDGGGPVAVIVDRG | 115 ± 36 | 10.1 ± 2.7 | – | –
CAH-BD (Bradyrhizobium diazoefficiens USDA 110) (protein, codon-optimised gene expressed in Bacillus subtilis, purified; no tag mentioned) MRTTSVGVFKIVTKGPGDVSGLMAMIGSGAIDPKSILAVLGKTEGNGGVNDFTREYAVAALCTALAPQLGLSPEEVEQRIAFVMSGGTEGVLSPHITVFTRREVERRPAGLSGKRLSIGMAHTRDFLPEELGRAAQIAETAAAVKAAMADAGIADPADVHFVQIKCPLLTSDRVEAASARGNKTATTSAYGSMAYSRGASALGVAVALGETGSDISDGDVLRRYDLFSKVASTSAGIELMHNVVIVLGNSAASASEFEIGHAVMNDAIDAAAVTSALKCVGLGVAPQAEAGRELVNIFAKAEASPDGSVRGFRHTMLEDTDISSTRHARAAVGGLIAGLAGTGAVYVSGGAEHQGPAGGGPVAVIARLSD | – | – | 103 ± 29 | 10.6 ± 1.9
